# Source: patent US20220112292A1
# Target: CLEC12A/CLL1 (Homo sapiens) (UniProt Q5QGZ9)
# Assay: ELISA on plate coated with 1 ug/mL human CLEC12A; sdAb detected with mouse anti-myc mAb and goat anti-mouse IgG-HRP; Abs 450nm
row,Binder,EC50
1,VHH clone 1B5 (VHH) VHH: QVQLQESGGGLVQAGGSLRLSCVVSGATSNVNAMGWYRQAPGKERELVAAISSGGSTSYRDSVKGRFTISRDNAKNTLYLQMNSLKPEDTAMYYCAAQDWATEGYEYDYWGQGTLVTVSS,19.5 nM
2,VHH clone 2F3 (VHH) VHH: QVQLQAFGGGLVQPGGSLRLSCVVSGTMFSGKDVNWLRQAPGKHVEVVATVSSDGGTDYADFVKGRFTISRDDAKNTVNLQMNSLEPEDTANYMCHFLWGRHYWGQGTQVTVSS,1.5 nM

# These reach a lower EC50. Values come first.
row,EC50,Binder
1,0.9 nM,VHH clone 1H1 (VHH) VHH: QVQLQESGGGLVQPGGSLRLSCAASGFTFNSYAMTWVRQAPGKGLEWVSDINSGGGSTNYADSVKGRFTISRDNAKNTLYLQMNSLKPEDTAVYYCATELRGSDYYRGPIREYAYWGQGTLVTVSS
2,0.65 nM,VHH clone 2F5 (VHH) VHH: QVQLQQSGGGLAQTGGSLILSCAASGSIFAINEINLMGWYRQAPGKQRELVAACASDGNTYYADSVKGRFTISRDNAEKTVYLQMNNLKPDDTAVYYCDANSRGNYYSGQGTQVTVSS
3,0.61 nM,VHH clone 2H3 (VHH) VHH: QVQLQESGGGLVQAGGSLRLSCVASGSIRSINVMGWYRQAPGKQRELVAACASDGNTYYADSVKGRFTISRDNAEKTVYLQMNNLKPDDTAVYYCDANSRGNYYSGQGTQVTVSS
4,0.48 nM,VHH clone 1G6 (VHH) VHH: QVQLQQSGGGLVQAGGSLRLSCAASGSIFAINEINLMGWYRQAPGKQRELVAACASDGNTYYADSVKGRFTISRDNAEKTVYLQMNNLKPDDTAVYYCDANSRGNYYSGQGTQVTVSS
